assay: soluble on expression in E. coli; label from the status in PepcDB or PDB records

Sequence | soluble on expression in E. coli
MNKQRFVVIDVETTGNSPKKGDKIIQIAAVVIENGQITERFSKYINPNKSIPAFIEQLTGISNQMVENEQPFEAVAEEVFQLLDGAYFVAHNIHFDLGFVKYELHKAGFQLPDCEVLDTVELSRIVFPGFEGYKLTELSEELQLRHDQPHRADSDAEVTGLIFLEILEKLRQLPYPTLKQLRRLSQHFISDLTHLLDMFINENRHTEIPGYTRFSSFSVREPEAIDVRINEDENFSFEIESWEAGNEKALSELMPGYEKRDGQMMMMREVADAFANREHALIEAPPGIGKTIGYLIPAALFAKKSKKPVIISTYSTLLQQQILTKDLPIVQDLFPFPVTAAILKGQSHYLCLYKFEQVLHEEDDNYDAVLTKAQLLVWLTETNTGDVAELNLPSGGKLLWDRLAYDDDSYKRSRSEHVIGFYERAKQIAMRSDLVITNHSLLLTDEGSHKKRLPESGTFIIDEAHHFERAASEHLGKRATYIELHTKLSRIGTLKEQGLLKKMRQLFQRNSLPVDSFFELEEWLQHVQAESDAFFSSVHSFVKRRKPKEDLNRLVFKVNKESQDKSWSILTDGAERLCSMLTHLQQLFEAQSSLMEKHLKGMKSKTVFLADEYQRSMKGLQHYCQTLQKLFFGSDDDEAVWIEIDAKGAKNAVAIYAQPLEPGELLADQFFARKNSVVLTSATLTVEGSFQFMIERLGLSDFFPRTMRIESPFSYDERMQVMIPKEMKSIQDTGQPEFIQDTARYIELMAKEKQPKILVLFTSHDMLKKVHQELKHNMSASGIQLLAQGITGGSPGKLMKTFKTSNQAILLGTNHFWEGVDFPGDELTTVMIVRLPFRSPDHPLHAAKCELARKKGKNPFQTVSLPEAVLTFRQGIGRLLRSAGDKGTIIILDRRIKTAGYGRLFLDALPTTSVSEMTDSELEAY | not soluble
MNKFKGNKVVLIGNGAVGSSYAFSLVNQSIVDELVIIDLDTEKVRGDVMDLKHATPYSPTTVRVKAGEYSDCHDADLVVICAGARQKPGETRLDLVSKNLKIFKSIVGEVMASKFDGIFLVATNPVDILAYATWKFSGLPKERVIGSGTILDSARFRLLLSEAFDVAPRSVDAQIIGEHGDTELPVWSHANIAGQPLKTLLEQRPEGKAQIEQIFVQTRDAAYDIIQAKGATYYGVAMGLARITEAIFRNEDAVLTVSALLEGEYEEEDVYIGVPAVINRNGIRNVVEIPLNDEEQSKFAHSAKTLKDIMAEAEELK | soluble
MGSDKIHHHHHHMPVLPVSSYKGSGPLANGHVQTMFPVLFRPMPVVEYHRQRLETPDGDFLDVDFSSAAAAAQSESIAVISHGLEGHSRRRYVQGMARVLNARGWDAAAWNFRGCSGQPNRLPRMYHSGDTQDLHTVVTACAQKGYRRILLVGVSMGGNQILKYLGEDPDRVDSRVCGAVVFSVPCDLVGAAQVLGRPQNSVYMRYFLRTLRQKIKAKHAMYPDTIQMDGLDSIRTFAEFDDRYTAPLHGFSGALDYWTKSSCRQFLSSVRVPALLVNALNDPFLSASCYPYREARQSGSLFFETTVTGGHVGFVQFNRQNIYWSEERLLSFMDEQGL | not soluble
MGSDKIHHHHHHAKNVLKAWLVDNTVTTDDKTDKIFQLETTRSIDKEIILDRMVAKNPGVRRETMALGIELMEEVVAEALMNGESVNTGLFRGVAQFRGVAKQNAWDAATNSIYVSLTQGKALREAIKDTRVDVLGERPTKFYIGSGQDATTRATDFSATAGRNFTLFGKNLTVAGTDPSVGVTLASAATGTVTKIDNDMIVLNEPSRLIILLPASLEDGEYMLTVTTQYRGGGGALLKTPRSTSHTIYIGGAPETGGSTGPPGDSDGDLNENPLG | not soluble
MAHHHHHHMTTTASPQTGSSPTVPTPVAPPSIDEALSYWIGLSRLIHRVCVTSDSTPSADEGEPSTFTRYALHCVLLCCGIKQHRVRQTADHMLAQLLSAAYTTAAALTGPVVLLDSESPASTPFRSPVRQLPVPLPVLVADWLKQSSADDQKASQHNRYCLRVPAVTWTRSIIKWLGSELRGQMISLRPLSRWNMVCAQQSGRMPVVIFVGGASGAGKSTLASLVASQLRVPNVLSTDTVRQVLRARLCGHEAQFPALFVSTYEAHKVTADDSHASADDGSAVPHAQSADENAIVQGYEAQCELVLRVLDGMLARLLARRESIVVEGVHLLPRYLAAKRAELLVSRVACVPVLVRIPKADSHLERLCIRARGMSMRAQNNKYIASFKAIRAIQAHLVDSVEAASLPVLVLSNTNMDKSFTALHHTLLETMEYAAVHGWPADAAAAADVPLTGLVFRAVKDRLVAVVRQRRWRRSATNDNISTSSGTGASAPGDEEKGGVATGPFSALVLAPHARPPVHSPAGSSNGAAPRARSAELLGVVQRCLLEQGLRYHSRTSNAQVDAATVYGSSGVLGARDASSRFHAHVVIRRSFTIAAKSHISMTASSHLPLDNHNEEFDELEIPSLIGS | not soluble

Source: the DeepSol protein solubility set
